Earlier results as cited in patent US7141590B2, “Pharmaceutical uses and synthesis of nicotinanilide-N-oxides” (UCB SA, priority 2000, dated 2006).

How the values were obtained:
[1] = molecular target: T1, human CXCR2 (IL8RB) chemokine receptor (Homo sapiens, UniProt P25025); settings: CXCR2 reference data; cited from earlier work
T1 construct: host or cells: CHO cells
T1 sequence (P25025 1-360): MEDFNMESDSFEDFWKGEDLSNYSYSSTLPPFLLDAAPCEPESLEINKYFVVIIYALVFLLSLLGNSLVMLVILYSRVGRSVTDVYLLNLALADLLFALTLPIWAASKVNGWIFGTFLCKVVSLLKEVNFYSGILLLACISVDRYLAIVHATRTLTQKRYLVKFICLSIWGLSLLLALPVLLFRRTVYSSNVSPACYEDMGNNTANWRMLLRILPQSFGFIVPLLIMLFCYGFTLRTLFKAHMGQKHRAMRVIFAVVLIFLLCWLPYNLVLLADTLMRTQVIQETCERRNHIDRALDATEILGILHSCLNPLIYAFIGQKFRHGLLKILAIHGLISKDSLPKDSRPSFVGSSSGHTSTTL

[2] = molecular target: T2, human CXCR1 (IL8RA) chemokine receptor (Homo sapiens, UniProt P25024); settings: CXCR1 reference data; cited from earlier work
T2 construct: host or cells: CHO cells
T2 sequence (P25024 1-350): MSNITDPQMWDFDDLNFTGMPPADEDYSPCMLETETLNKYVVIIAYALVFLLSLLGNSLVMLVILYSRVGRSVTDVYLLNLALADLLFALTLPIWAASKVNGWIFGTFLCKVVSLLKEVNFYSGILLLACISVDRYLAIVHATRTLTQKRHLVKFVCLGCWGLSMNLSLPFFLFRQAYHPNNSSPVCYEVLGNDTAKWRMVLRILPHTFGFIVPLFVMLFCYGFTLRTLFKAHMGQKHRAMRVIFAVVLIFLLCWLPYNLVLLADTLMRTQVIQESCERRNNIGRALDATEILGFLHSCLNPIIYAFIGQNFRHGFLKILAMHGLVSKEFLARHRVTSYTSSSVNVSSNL

B1: NAP-2: Neutrophil Activating Peptide-2 (protein, UniProt P02775 59-128, looked up)
Neutrophil-activating peptide …: AELRCMCIKTTSGIHPKNIQSLEVIGKGTHCNQVEVIATLKDGRKICLDPDAPRIKKIVQKKLAGDESAD
modifications: Neutrophil-activating peptide 2
[1]
  IC50: 3.1 nM
  Ki: 2.2 nM
  nH: 0.6
[2]
  IC50: > 10000 nM
